Assay results published in patent publication US7244606B2, “Modified BACE” (Elan Pharmaceuticals, Inc., priority 2002, dated 2007).
Several values for one entry are separate records, joined by “and”; a condition that tells them apart may be missing. Equal values may be shown once.

Tests used:
[1] = test system: substrate S-1 (SEQ ID NO: 10); experiment: BACE activity assay: cleavage of substrate S-1, HPLC tryptophan fluorescence peak area; format: biochemical; details: for Activity Assays (Fluorescence Peak Area): 50 μl BACE sample containing 5–10 pmoles protein, 5 μl 1 mM substrate S-1, NaOAc pH 5.0, 1–2 hours at 37° C.
Protocol: The activity of P33K-BACE expressed in E. coli according the above Examples was compared to the activity of human BACE prepared as above without the P33K mutation, and to human BACE expressed in CHO cells.
To assay for BACE activity, the following activity assay conditions were utilized, unless specifically indicated otherwise: 20 μl 1 M sodium acetate (NaOAc), pH 5.0; 125 μl H2O; 50 μl BACE sample containing 5–10 pmoles protein; and 5 μl 1 mM substrate S-1 (SEQ ID NO: 10).
The 200 μl assay reaction was incubated for 1–2 hours at 37° C. Activity was expressed as fluorescence peak area generated by the liberation of a fluorescent (Tryptophan fluorescence) product upon cleavage of Substrate S-1 by recombinant BACE. The reaction was stopped with 100 μl of 4% TFA in H2O. In order to separate the cleavage products and thereby detect activity of recombinant BACE, 50 microliters of the reaction mixture was injected into a Hewlett Packard Model 1100 HPLC equipped with an Alltech Rocket™ column (7 mm i.d., ×53 mm length, C18, 3 μm) pre-equilibrated with 88% Reagent A (0.1% TFA in water), 12% Reagent B (0.1% TFA in acetonitrile). The flow rate over this column was 3 ml per minute.

[2] = test system: polypeptide substrate; details: assayed with a polypeptide substrate; cited from earlier work

B1: E. Coli P33K-BACE: recombinant human BACE with proline to lysine mutation at position 33, terminated at S432, expressed in E. coli and refolded (protein, listed as Homo sapiens)
chain: TQHGIRLPLRSGLGGAPLGLRLPRETDEEPEEKGRRGSFVEMVDNLRGKSGQGYYVEMTVGSPPQTLNILVDTGSSNFAVGAAPHPFLHRYYQRQLSSTYRDLRKGVYVPYTQGKWEGELGTDLVSIPHGPNVTVRANIAAITESDKFFINGSNWEGILGLAYAEIARPDDSLEPFFDSLVKQTHVPNLFSLQLCGAGFPLNQSEVLASVGGSMIIGGIDHSLYTGSLWYTPIRREWYYEVIIVRVEINGQDLKMDCKEYNYDKSIVDSGTTNLRLPKKVFEAAVKSIKAASSTEKFPDGFWLGEQLVCWQAGTTPWNIFPVISLYLMGEVTNQSFRITILPQQYLRPVEDVATSQDDCYKFAISQSSTGTVMGAVIMEGFYVVFDRARKRIGFAVSACHVHDEFRTAAVEGPFVTLDMEDCGYNIPQTDES
modifications: Amino acid sequence of human BACE with P33K mutation.
Activity Assays (Fluorescence Peak Area) [1]: 38.41 and 26.50 and 32.84 | activity compared with BACE ([1]; result in words): essentially the same activity of BACE

B2: β-secretase with the pro-segment intact: β-secretase with the pro-segment intact, from Shi et al., 2001 (protein, UniProt P56817 22-501, looked up)
pro-form: TQHGIRLPLRSGLGGAPLGLRLPRETDEEPEEPGRRGSFVEMVDNLRGKSGQGYYVEMTVGSPPQTLNILVDTGSSNFAVGAAPHPFLHRYYQRQLSSTYRDLRKGVYVPYTQGKWEGELGTDLVSIPHGPNVTVRANIAAITESDKFFINGSNWEGILGLAYAEIARPDDSLEPFFDSLVKQTHVPNLFSLQLCGAGFPLNQSEVLASVGGSMIIGGIDHSLYTGSLWYTPIRREWYYEVIIVRVEINGQDLKMDCKEYNYDKSIVDSGTTNLRLPKKVFEAAVKSIKAASSTEKFPDGFWLGEQLVCWQAGTTPWNIFPVISLYLMGEVTNQSFRITILPQQYLRPVEDVATSQDDCYKFAISQSSTGTVMGAVIMEGFYVVFDRARKRIGFAVSACHVHDEFRTAAVEGPFVTLDMEDCGYNIPQTDESTLMTIAYVMAAICALFMLPLCLMVCQWRCLRCLRQQHDDFADDISLLK
modifications: pro-form
k(cat)/K(m), fold less than β-secretase [2]: 2.3 fold

B3: E. Coli BACE: human BACE prepared as above in E. coli without the P33K mutation (protein)
chain: MASMTGGQQMGRGSMAGVLPAHGTQHGIRLPLRSGLGGAPLGLRLPRETDEEPEEPGRRGSFVEMVDNLRGKSGQGYYVEMTVGSPPQTLNILVDTGSSNFAVGAAPHPFLHRYYQRQLSSTYRDLRKGVYVPYTQGKWEGELGTDLVSIPHGPNVTVRANIAAITESDKFFINGSNWEGILGLAYAEIARPDDSLEPFFDSLVKQTHVPNLFSLQLCGAGFPLNQSEVLASVGGSMIIGGIDHSLYTGSLWYTPIRREWYYEVIIVRVEINGQDLKMDCKEYNYDKSIVDSGTTNLRLPKKVFEAAVKSIKAASSTEKFPDGFWLGEQLVCWQAGTTPWNIFPVISLYLMGEVTNQSFRITILPQQYLRPVEDVATSQDDCYKFAISQSSTGTVMGAVIMEGFYVVFDRARKRIGFAVSACHVHDEFRTAAVEGPFVTLDMEDCGYNIPQTDES
Activity Assays (Fluorescence Peak Area) [1]: 31.03 and 45.80 and 31.86

B4: CHO BACE: human BACE construct Asp2-2L-TM-His6 expressed in CHO cells; 50:50 mixture of two isoforms (control) (protein)
chain: TQHGIRLPLRSGLGGAPLGLRLPRETDEEPEEPGRRGSFVEMVDNLRGKSGQGYYVEMTVGSPPQTLNILVDTGSSNFAVGAAPHPFLHRYYQRQLSSTYRDLRKGVYVPYTQGKWEGELGTDLVSIPHGPNVTVRANIAAITESDKFFINGSNWEGILGLAYAEIARPDDSLEPFFDSLVKQTHVPNLFSLQLCGAGFPLNQSEVLASVGGSMIIGGIDHSLYTGSLWYTPIRREWYYEVIIVRVEINGQDLKMDCKEYNYDKSIVDSGTTNLRLPKKVFEAAVKSIKAASSTEKFPDGFWLGEQLVCWQAGTTPWNIFPVISLYLMGEVTNQSFRITILPQQYLRPVEDVATSQDDCYKFAISQSSTGTVMGAVIMEGFYVVFDRARKRIGFAVSACHVHDEFRTAAVEGPFVTLDMEDCGYNIPQTDESHHHHHH
Activity Assays (Fluorescence Peak Area) [1]: 83.32 and 85.20 and 78.07
